Assays:
Test in all cases: cell-based or functional assay
[1] = molecular target: ACTR variant SEQ ID NO: 10
[2] = molecular target: ACTR variant SEQ ID NO: 63
[3] = molecular target: ACTR variant SEQ ID NO: 61
[4] = molecular target: ACTR variant SEQ ID NO: 59
[5] = molecular target: ACTR variant SEQ ID NO: 62
[6] = molecular target: ACTR variant SEQ ID NO: 58
[7] = molecular target: ACTR variant SEQ ID NO: 7
[8] = molecular target: ACTR variant SEQ ID NO: 57
[9] = molecular target: ACTR variant SEQ ID NO: 60
Chain of ACTR variant SEQ ID NO: 60 (chain, as listed by the source mutant limits assumed): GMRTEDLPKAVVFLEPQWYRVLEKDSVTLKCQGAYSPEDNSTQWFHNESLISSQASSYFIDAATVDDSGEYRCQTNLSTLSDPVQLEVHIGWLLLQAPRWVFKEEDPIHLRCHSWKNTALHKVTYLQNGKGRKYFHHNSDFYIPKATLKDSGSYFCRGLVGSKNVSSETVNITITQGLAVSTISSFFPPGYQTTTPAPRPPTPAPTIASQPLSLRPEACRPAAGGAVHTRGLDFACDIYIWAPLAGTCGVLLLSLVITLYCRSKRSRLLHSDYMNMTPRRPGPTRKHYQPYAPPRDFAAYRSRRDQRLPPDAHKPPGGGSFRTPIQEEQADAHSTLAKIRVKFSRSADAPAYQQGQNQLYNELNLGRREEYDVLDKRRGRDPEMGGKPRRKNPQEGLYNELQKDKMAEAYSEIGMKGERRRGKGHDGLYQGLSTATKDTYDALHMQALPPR

Chain of ACTR variant SEQ ID NO: 57 (chain, as listed by the source mutant): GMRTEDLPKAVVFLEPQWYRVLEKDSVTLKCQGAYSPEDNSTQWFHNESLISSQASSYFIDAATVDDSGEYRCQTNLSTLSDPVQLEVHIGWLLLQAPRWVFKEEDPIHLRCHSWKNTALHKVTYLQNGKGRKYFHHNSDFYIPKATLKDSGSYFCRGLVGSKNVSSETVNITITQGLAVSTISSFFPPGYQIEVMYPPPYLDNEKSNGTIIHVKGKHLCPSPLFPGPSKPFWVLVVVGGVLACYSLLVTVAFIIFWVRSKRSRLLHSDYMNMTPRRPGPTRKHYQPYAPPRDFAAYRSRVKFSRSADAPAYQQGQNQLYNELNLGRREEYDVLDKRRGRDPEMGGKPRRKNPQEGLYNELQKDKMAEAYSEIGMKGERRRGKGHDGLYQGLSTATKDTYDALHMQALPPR
Chain of ACTR variant SEQ ID NO: 7 (chain, as listed by the source mutant limits assumed): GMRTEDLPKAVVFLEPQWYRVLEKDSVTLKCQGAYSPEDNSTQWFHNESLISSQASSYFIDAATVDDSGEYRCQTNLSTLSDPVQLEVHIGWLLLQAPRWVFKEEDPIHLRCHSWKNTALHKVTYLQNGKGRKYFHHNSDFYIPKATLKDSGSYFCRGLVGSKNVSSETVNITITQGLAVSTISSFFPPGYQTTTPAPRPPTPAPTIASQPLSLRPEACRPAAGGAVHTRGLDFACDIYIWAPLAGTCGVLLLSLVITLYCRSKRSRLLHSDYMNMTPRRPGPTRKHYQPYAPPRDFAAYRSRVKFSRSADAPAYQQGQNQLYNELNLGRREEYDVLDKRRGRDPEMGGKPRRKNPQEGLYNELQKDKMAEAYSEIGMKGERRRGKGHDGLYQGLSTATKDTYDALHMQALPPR
Chain of ACTR variant SEQ ID NO: 59 (chain, as listed by the source mutant limits assumed): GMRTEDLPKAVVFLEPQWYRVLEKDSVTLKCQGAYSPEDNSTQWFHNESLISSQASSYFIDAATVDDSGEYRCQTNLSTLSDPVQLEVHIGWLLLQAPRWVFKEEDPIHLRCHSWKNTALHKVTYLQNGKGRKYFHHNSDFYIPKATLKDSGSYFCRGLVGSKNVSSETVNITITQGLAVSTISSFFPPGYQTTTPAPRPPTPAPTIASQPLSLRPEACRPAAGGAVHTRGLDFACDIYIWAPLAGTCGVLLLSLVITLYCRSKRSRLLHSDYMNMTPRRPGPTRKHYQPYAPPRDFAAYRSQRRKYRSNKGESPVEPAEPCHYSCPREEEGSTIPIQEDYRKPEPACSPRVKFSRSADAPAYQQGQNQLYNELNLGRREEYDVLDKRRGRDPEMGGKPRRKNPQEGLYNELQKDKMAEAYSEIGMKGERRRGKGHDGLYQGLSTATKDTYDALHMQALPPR
Chain of ACTR variant SEQ ID NO: 62 (chain, as listed by the source mutant limits assumed): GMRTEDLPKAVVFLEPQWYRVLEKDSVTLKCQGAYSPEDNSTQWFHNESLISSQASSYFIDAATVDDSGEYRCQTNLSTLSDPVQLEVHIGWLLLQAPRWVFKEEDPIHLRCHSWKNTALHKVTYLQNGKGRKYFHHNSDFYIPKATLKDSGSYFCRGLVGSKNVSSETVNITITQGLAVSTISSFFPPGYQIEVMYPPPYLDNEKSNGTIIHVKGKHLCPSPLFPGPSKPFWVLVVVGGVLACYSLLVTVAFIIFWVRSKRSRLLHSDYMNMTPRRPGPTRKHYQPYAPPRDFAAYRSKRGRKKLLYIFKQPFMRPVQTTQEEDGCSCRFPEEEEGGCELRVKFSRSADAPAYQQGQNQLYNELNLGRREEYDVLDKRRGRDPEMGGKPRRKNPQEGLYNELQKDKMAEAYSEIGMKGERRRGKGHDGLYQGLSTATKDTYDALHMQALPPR
Chain of ACTR variant SEQ ID NO: 63 (chain, as listed by the source mutant limits assumed): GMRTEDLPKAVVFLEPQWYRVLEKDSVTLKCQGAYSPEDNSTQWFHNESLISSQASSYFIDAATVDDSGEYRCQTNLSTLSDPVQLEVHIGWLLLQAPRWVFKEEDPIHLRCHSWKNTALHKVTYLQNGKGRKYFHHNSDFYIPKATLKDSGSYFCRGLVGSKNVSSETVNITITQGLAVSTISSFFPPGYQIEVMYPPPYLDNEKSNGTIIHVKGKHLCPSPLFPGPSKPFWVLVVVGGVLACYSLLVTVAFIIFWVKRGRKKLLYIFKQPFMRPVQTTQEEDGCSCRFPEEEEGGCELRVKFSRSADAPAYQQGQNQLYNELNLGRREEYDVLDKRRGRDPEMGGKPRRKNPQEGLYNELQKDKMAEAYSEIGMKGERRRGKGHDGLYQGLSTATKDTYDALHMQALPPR
Chain of ACTR variant SEQ ID NO: 10 (chain, as listed by the source mutant limits assumed): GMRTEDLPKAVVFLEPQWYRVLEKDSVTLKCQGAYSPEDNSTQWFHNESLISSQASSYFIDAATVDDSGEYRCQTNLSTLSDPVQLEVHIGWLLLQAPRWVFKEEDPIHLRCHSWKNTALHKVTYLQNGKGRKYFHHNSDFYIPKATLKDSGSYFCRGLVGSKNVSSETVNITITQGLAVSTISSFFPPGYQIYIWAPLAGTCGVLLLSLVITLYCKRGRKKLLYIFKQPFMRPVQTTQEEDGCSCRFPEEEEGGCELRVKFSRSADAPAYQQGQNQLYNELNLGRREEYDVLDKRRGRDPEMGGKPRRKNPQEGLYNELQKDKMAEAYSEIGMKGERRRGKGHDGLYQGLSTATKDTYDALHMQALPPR
Chain of ACTR variant SEQ ID NO: 58 (chain, as listed by the source mutant): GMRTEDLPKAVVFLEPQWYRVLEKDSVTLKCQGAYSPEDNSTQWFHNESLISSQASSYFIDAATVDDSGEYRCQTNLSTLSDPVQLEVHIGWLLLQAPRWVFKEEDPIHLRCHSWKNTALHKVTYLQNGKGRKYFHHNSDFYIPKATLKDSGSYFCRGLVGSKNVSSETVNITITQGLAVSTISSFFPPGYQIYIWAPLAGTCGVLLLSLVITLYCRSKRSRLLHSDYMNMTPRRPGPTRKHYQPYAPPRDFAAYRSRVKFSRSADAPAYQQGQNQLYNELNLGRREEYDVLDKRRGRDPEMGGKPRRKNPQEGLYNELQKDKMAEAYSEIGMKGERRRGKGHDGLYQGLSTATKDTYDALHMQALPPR
Chain of ACTR variant SEQ ID NO: 61 (chain, as listed by the source mutant limits assumed): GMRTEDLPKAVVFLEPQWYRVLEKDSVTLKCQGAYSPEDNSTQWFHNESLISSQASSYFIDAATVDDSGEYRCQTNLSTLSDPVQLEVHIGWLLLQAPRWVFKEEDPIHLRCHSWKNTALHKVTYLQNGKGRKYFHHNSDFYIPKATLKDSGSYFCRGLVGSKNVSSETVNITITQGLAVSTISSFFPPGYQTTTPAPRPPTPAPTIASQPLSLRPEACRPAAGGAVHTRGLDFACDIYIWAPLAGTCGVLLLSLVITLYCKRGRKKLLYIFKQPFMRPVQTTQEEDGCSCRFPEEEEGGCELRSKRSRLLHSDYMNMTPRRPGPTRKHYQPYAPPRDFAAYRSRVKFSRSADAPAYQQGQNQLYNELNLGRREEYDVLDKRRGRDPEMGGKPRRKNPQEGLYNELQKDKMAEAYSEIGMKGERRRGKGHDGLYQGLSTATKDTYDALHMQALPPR

B1: humanized afucosylated (SEA) anti-BCMA antibody hSG16.17SEA (antibody, V domains shown)
VH: QVQLVQSGAEVKKPGASVKLSCKASGYTFTDYYIHWVRQAPGQGLEWIGYINPNSGYTNYAQKFQGRATMTADKSINTAYVELSRLRSDDTAVYFCTRYMWERVTGFFDFWGQGTMVTVSS
VL: DIQMTQSPSSVSASVGDRVTITCLASEDISDDLAWYQQKPGKAPKVLVYTTSSLQSGVPSRFSGSGSGTDFTLTISSLQPEDFATYFCQQTYKFPPTFGGGTKVEIKR
IFNγ Release (pg/mL), ACTR T cells + NCI-H929 Target Cells + hSG16.17SEA (1 µg/mL) [1]: 19800 pg/mL | IFNγ Release (pg/mL), ACTR T cells + U266B1 Target Cells + hSG16.17SEA (1 µg/mL) [1]: 7970 pg/mL | IL-2 Release (pg/mL), ACTR T cells + NCI-H929 Target Cells + hSG16.17SEA (1 µg/mL) [1]: 224 pg/mL | IL-2 Release (pg/mL), ACTR T cells + U266B1 Target Cells + hSG16.17SEA (1 µg/mL) [1]: 260 pg/mL | T-cell proliferation: fold increase in CD3+ cells at 1 µg/mL hSG16.17SEA relative to no antibody, NCI-H929 Target Cells [1]: 7.46 fold | T-cell proliferation: fold increase in CD3+ cells at 1 µg/mL hSG16.17SEA relative to no antibody, U266B1 Target Cells [1]: 1.62 fold | IFNγ Release (pg/mL), ACTR T cells + NCI-H929 Target Cells + hSG16.17SEA (1 µg/mL) [2]: 16000 pg/mL | IFNγ Release (pg/mL), ACTR T cells + U266B1 Target Cells + hSG16.17SEA (1 µg/mL) [2]: 10400 pg/mL | IL-2 Release (pg/mL), ACTR T cells + NCI-H929 Target Cells + hSG16.17SEA (1 µg/mL) [2]: 66.5 pg/mL | IL-2 Release (pg/mL), ACTR T cells + U266B1 Target Cells + hSG16.17SEA (1 µg/mL) [2]: 1.6 pg/mL | T-cell proliferation: fold increase in CD3+ cells at 1 µg/mL hSG16.17SEA relative to no antibody, NCI-H929 Target Cells [2]: 3.76 fold | T-cell proliferation: fold increase in CD3+ cells at 1 µg/mL hSG16.17SEA relative to no antibody, U266B1 Target Cells [2]: 2.82 fold | IFNγ Release (pg/mL), ACTR T cells + NCI-H929 Target Cells + hSG16.17SEA (1 µg/mL) [3]: 22900 pg/mL | IFNγ Release (pg/mL), ACTR T cells + U266B1 Target Cells + hSG16.17SEA (1 µg/mL) [3]: 11600 pg/mL | IL-2 Release (pg/mL), ACTR T cells + NCI-H929 Target Cells + hSG16.17SEA (1 µg/mL) [3]: 178 pg/mL | IL-2 Release (pg/mL), ACTR T cells + U266B1 Target Cells + hSG16.17SEA (1 µg/mL) [3]: 132 pg/mL | T-cell proliferation: fold increase in CD3+ cells at 1 µg/mL hSG16.17SEA relative to no antibody, NCI-H929 Target Cells [3]: 15.8 fold | T-cell proliferation: fold increase in CD3+ cells at 1 µg/mL hSG16.17SEA relative to no antibody, U266B1 Target Cells [3]: 8.72 fold | IFNγ Release (pg/mL), ACTR T cells + NCI-H929 Target Cells + hSG16.17SEA (1 µg/mL) [4]: 17100 pg/mL | IFNγ Release (pg/mL), ACTR T cells + U266B1 Target Cells + hSG16.17SEA (1 µg/mL) [4]: 12600 pg/mL | IL-2 Release (pg/mL), ACTR T cells + NCI-H929 Target Cells + hSG16.17SEA (1 µg/mL) [4]: 46.6 pg/mL | IL-2 Release (pg/mL), ACTR T cells + U266B1 Target Cells + hSG16.17SEA (1 µg/mL) [4]: 214 pg/mL | T-cell proliferation: fold increase in CD3+ cells at 1 µg/mL hSG16.17SEA relative to no antibody, NCI-H929 Target Cells [4]: 11.5 fold | T-cell proliferation: fold increase in CD3+ cells at 1 µg/mL hSG16.17SEA relative to no antibody, U266B1 Target Cells [4]: 6.91 fold | IFNγ Release (pg/mL), ACTR T cells + NCI-H929 Target Cells + hSG16.17SEA (1 µg/mL) [5]: 14500 pg/mL | IFNγ Release (pg/mL), ACTR T cells + U266B1 Target Cells + hSG16.17SEA (1 µg/mL) [5]: 7580 pg/mL | IL-2 Release (pg/mL), ACTR T cells + NCI-H929 Target Cells + hSG16.17SEA (1 µg/mL) [5]: 119 pg/mL | IL-2 Release (pg/mL), ACTR T cells + U266B1 Target Cells + hSG16.17SEA (1 µg/mL) [5]: 12.3 pg/mL | T-cell proliferation: fold increase in CD3+ cells at 1 µg/mL hSG16.17SEA relative to no antibody, NCI-H929 Target Cells [5]: 6.24 fold | T-cell proliferation: fold increase in CD3+ cells at 1 µg/mL hSG16.17SEA relative to no antibody, U266B1 Target Cells [5]: 2.87 fold | IFNγ Release (pg/mL), ACTR T cells + NCI-H929 Target Cells + hSG16.17SEA (1 µg/mL) [6]: 16800 pg/mL | IFNγ Release (pg/mL), ACTR T cells + U266B1 Target Cells + hSG16.17SEA (1 µg/mL) [6]: 12700 pg/mL | IL-2 Release (pg/mL), ACTR T cells + NCI-H929 Target Cells + hSG16.17SEA (1 µg/mL) [6]: 420 pg/mL | IL-2 Release (pg/mL), ACTR T cells + U266B1 Target Cells + hSG16.17SEA (1 µg/mL) [6]: 17.8 pg/mL | T-cell proliferation: fold increase in CD3+ cells at 1 µg/mL hSG16.17SEA relative to no antibody, NCI-H929 Target Cells [6]: 9.76 fold | T-cell proliferation: fold increase in CD3+ cells at 1 µg/mL hSG16.17SEA relative to no antibody, U266B1 Target Cells [6]: 4.75 fold | IFNγ Release (pg/mL), ACTR T cells + NCI-H929 Target Cells + hSG16.17SEA (1 µg/mL) [7]: 6250 pg/mL | IFNγ Release (pg/mL), ACTR T cells + U266B1 Target Cells + hSG16.17SEA (1 µg/mL) [7]: 13700 pg/mL | IL-2 Release (pg/mL), ACTR T cells + NCI-H929 Target Cells + hSG16.17SEA (1 µg/mL) [7]: 262 pg/mL | IL-2 Release (pg/mL), ACTR T cells + U266B1 Target Cells + hSG16.17SEA (1 µg/mL) [7]: 34.8 pg/mL | T-cell proliferation: fold increase in CD3+ cells at 1 µg/mL hSG16.17SEA relative to no antibody, NCI-H929 Target Cells [7]: 80.1 fold | T-cell proliferation: fold increase in CD3+ cells at 1 µg/mL hSG16.17SEA relative to no antibody, U266B1 Target Cells [7]: 52 fold | IFNγ Release (pg/mL), ACTR T cells + NCI-H929 Target Cells + hSG16.17SEA (1 µg/mL) [8]: 16700 pg/mL | IFNγ Release (pg/mL), ACTR T cells + U266B1 Target Cells + hSG16.17SEA (1 µg/mL) [8]: 12600 pg/mL | IL-2 Release (pg/mL), ACTR T cells + NCI-H929 Target Cells + hSG16.17SEA (1 µg/mL) [8]: 373 pg/mL | IL-2 Release (pg/mL), ACTR T cells + U266B1 Target Cells + hSG16.17SEA (1 µg/mL) [8]: 187 pg/mL | T-cell proliferation: fold increase in CD3+ cells at 1 µg/mL hSG16.17SEA relative to no antibody, NCI-H929 Target Cells [8]: 35.5 fold | T-cell proliferation: fold increase in CD3+ cells at 1 µg/mL hSG16.17SEA relative to no antibody, U266B1 Target Cells [8]: 49.5 fold | IFNγ Release (pg/mL), ACTR T cells + NCI-H929 Target Cells + hSG16.17SEA (1 µg/mL) [9]: 18600 pg/mL | IFNγ Release (pg/mL), ACTR T cells + U266B1 Target Cells + hSG16.17SEA (1 µg/mL) [9]: 14400 pg/mL | IL-2 Release (pg/mL), ACTR T cells + NCI-H929 Target Cells + hSG16.17SEA (1 µg/mL) [9]: 258 pg/mL | IL-2 Release (pg/mL), ACTR T cells + U266B1 Target Cells + hSG16.17SEA (1 µg/mL) [9]: 48.6 pg/mL | T-cell proliferation: fold increase in CD3+ cells at 1 µg/mL hSG16.17SEA relative to no antibody, NCI-H929 Target Cells [9]: 18.3 fold | T-cell proliferation: fold increase in CD3+ cells at 1 µg/mL hSG16.17SEA relative to no antibody, U266B1 Target Cells [9]: 11.7 fold
